Measurements published in patent publication US20240228562A1 (Pieris, published 2024).

T1: recombinant rat CTGF protein (R&D Systems) (rat, UniProt Q9R1E9 25-347)
T1 construct: Bought; also called rCTGF
T1 sequence: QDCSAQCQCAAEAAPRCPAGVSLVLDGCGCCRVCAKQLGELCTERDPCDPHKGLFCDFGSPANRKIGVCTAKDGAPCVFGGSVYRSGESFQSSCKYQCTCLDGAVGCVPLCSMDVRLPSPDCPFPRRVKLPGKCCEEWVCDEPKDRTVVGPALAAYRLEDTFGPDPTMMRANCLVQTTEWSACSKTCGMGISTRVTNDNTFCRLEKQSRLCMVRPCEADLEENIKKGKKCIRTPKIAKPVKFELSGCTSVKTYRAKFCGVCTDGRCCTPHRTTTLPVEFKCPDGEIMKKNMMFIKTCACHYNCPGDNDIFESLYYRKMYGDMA

T2: CTGF expressed by TGF-β1-stimulated normal human lung fibroblasts (NHLFs) (human, UniProt P29279 27-349)
T2 construct: whole, on cells; Cells grown under conditions that facilitate pseudo-3D extracellular matrix deposition; also called CTGF-expressing NHLFs
T2 sequence (looked up): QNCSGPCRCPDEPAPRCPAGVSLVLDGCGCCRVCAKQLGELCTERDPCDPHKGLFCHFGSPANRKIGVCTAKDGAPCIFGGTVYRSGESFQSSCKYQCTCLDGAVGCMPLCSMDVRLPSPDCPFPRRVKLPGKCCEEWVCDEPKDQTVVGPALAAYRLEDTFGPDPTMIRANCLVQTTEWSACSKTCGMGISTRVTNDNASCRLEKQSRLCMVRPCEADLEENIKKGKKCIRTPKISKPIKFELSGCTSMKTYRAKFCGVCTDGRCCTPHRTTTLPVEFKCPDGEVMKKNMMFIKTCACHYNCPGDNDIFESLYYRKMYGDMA

T3: huCYR61 (human, UniProt O00622 25-381, limits assumed)
T3 construct: also called human CYR61 (CCN1)
T3 sequence (looked up): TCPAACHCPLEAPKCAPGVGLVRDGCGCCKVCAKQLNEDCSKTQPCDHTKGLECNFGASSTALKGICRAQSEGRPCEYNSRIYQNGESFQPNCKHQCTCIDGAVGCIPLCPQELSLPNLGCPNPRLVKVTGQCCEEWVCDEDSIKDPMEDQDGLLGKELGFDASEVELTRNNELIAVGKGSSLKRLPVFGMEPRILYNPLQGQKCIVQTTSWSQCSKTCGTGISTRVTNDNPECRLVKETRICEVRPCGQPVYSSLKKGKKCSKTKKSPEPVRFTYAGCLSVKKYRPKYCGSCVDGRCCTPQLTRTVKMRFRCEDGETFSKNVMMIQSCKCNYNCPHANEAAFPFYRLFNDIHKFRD

T4: huWISP-3 (human, UniProt O95389 24-354, limits assumed)
T4 construct: also called human WISP-3 (CCN6)
T4 sequence (looked up): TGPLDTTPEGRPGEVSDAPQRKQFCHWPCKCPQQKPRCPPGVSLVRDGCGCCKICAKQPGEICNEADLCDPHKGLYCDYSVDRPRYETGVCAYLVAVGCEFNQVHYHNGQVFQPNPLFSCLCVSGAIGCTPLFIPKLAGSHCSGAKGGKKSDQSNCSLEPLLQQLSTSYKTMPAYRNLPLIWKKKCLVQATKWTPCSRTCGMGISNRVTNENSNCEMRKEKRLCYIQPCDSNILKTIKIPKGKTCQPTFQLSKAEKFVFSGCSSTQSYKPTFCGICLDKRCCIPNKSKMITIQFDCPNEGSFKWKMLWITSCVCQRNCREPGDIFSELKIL

T5: huNOV (human, UniProt P48745 32-357, limits assumed)
T5 construct: also called human NOV (CCN3)
T5 sequence (looked up): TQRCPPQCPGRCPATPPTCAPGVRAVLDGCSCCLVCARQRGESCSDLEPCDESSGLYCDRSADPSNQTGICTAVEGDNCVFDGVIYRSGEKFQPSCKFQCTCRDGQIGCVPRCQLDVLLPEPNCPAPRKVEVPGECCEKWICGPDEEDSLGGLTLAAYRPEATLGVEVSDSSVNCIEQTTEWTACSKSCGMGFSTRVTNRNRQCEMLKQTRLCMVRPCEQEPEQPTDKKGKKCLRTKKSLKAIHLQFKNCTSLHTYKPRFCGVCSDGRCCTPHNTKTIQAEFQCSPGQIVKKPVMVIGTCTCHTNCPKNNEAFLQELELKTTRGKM

T6: huWISP-2 (human, UniProt O76076 24-250, limits assumed)
T6 construct: also called human WISP-2 (CCN5)
T6 sequence (looked up): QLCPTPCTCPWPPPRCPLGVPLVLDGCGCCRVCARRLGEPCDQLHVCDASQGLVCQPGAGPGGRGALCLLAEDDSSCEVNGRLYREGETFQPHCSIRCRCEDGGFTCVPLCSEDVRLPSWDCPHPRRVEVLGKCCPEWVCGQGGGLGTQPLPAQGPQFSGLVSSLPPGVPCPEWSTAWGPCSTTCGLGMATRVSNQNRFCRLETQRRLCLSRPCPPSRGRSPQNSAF

T7: huWISP-1 (human, UniProt O95388 23-367, limits assumed)
T7 construct: also called human WISP-1 (CCN4)
T7 sequence (looked up): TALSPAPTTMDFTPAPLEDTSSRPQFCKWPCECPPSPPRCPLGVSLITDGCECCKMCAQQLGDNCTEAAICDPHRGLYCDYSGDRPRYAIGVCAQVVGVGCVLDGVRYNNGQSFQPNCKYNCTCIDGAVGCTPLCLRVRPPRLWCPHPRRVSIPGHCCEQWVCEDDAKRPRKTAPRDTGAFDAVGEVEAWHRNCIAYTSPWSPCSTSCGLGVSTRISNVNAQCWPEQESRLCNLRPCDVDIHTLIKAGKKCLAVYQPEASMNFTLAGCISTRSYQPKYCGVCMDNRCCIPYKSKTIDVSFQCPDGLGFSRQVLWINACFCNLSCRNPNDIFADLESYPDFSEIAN

B1: lipocalin mutein of SEQ ID NO: 6 (designed binder)
chain: QDSTSDLIPAPPLSKVPLQQNFQDNQFQGKWYVVGRAGNNQLREDKSPPKMWATIYELKEDKSYDVTHVHFSTKKCRYIIDTFVPGSQPGEFTAGAIKSGPGLTSPLVRVVSTNYNQHAMVFFKWVTQNREWFTITLYGRTKELTSELKENFIRFSKSLGLPENHIVFPVPIDQCIDG
notes: also called hNGAL mutein; not shown: C-terminal His-tag
B2: lipocalin mutein of SEQ ID NO: 23 (designed binder)
chain: QDSTSDLIPAPPLSKVPLQQNFQDNQFQGKWYVVGVAGNAILRPDKQPAKMFATIYELKEDKSYDVTSVRFEAKSCKYTIKTFVPGSQPGEFTSGQIKSAPGQTSTLVRVVSTNYNQHAMVFFKHVSQNREIFVITLYGRTKELTSELKENFIRFSKSLGLPENHIVFPVPIDQCIDG
notes: also called hNGAL mutein

What was measured:
[1] = target: T8, recombinant human CTGF-Fc protein (Creative Biomart) (human); assay: SPR (Biacore)
T8 construct: Bought; also called human CTGF with a human IgG1 Fc Tag
T8 sequence (chain, as listed by the source limits assumed): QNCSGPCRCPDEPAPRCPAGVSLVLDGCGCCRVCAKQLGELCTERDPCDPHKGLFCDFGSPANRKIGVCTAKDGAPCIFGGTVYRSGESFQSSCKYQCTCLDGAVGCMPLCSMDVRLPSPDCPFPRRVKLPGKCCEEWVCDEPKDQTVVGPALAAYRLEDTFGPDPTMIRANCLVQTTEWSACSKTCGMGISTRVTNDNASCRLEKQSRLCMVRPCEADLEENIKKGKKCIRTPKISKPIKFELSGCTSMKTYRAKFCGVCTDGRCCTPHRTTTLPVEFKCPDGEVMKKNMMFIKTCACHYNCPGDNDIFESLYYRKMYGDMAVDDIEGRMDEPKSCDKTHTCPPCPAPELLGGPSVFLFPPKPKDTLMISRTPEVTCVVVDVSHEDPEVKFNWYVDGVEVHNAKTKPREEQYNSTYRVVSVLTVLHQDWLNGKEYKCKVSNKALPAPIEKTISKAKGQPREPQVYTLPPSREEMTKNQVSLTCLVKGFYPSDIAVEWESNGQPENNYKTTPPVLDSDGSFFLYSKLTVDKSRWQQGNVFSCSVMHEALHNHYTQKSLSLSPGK
Description: (§1) The binding of exemplary lipocalin muteins to human (Creative Biomart), cynomolgus, rat (R&D Systems) and mouse CTGF (Abbexa) was determined by SPR using a Biacore instrument (Cytiva, formerly GE Healthcare). Some targets were fused to a human IgG1 Fc tag, and captured via the anti-human IgG antibody kit, others were directly immobilized.
(§2) For some measurements, human CTGF with a human IgG1 Fc Tag or rat or murine CTGF without a tag were directly immobilized to a CM5 Chip. The carboxyl groups on the chip were activated using 1-ethyl-3-(3-dimethylaminopropyl)-carbodiimide (EDC) and N-hydroxysuccinimide (NHS). […] Residual non-reacted NHS-esters were blocked by passing a solution of 1 M ethanolamine across the surface. The reference channel was activated/deactivated. For the capture setting, targets with an IgG Fc Tag at 0.25-2.5 μg/mL in HBS-EP+ buffer were captured by the anti-human IgG-Fc antibody at the chip surface for 180 s at a flow rate of 10 μL/min.
(§3) The binding assay was carried out with a contact time of 180 s, a dissociation time of 900-3600 s and a flow rate of 30 μL/min. All measurements were performed at 25° C. […] For the directly immobilized targets, the same regeneration conditions were used. Prior to the protein measurements, three startup cycles were performed for conditioning purposes.

[2] = target: T1, recombinant rat CTGF protein (R&D …); assay: SPR (Biacore); B = binding without determination of kinetics constants
Description: as §1, §2, §3

[3] = target: T2, CTGF expressed by TGF-β1-stimulated …; assay: immunofluorescence staining of the lipocalin scaffold (AlexaFluor647 secondary antibody) on NHLFs incubated 24 h with the construct and 10 ng/ml TGF-β1; signal normalised to the NGAL control
Description: Binding of the CTGF-targeting lipocalin muteins and fusion proteins disclosed herein to CTGF-expressing, TGF-β1-stimulated normal human lung fibroblasts (NHLFs) was tested by incubating NHLFs for 24 h with constructs and 10 ng/ml TGF-β1, which induces CTGF expression. NHLFs without TGF-β1 stimulation were included as negative control. Constructs were detected with a secondary antibody against the lipocalin scaffold coupled to AlexaFluor647 after NHLFs were fixed in 4% PFA and blocked with 5% BSA. Images were acquired on the Cytation5 Reader (Biotek). Signals were quantified in Gene5 software and normalized to the respective controls.

huCYR61 = target: T3, huCYR61; assay: ELISA, coated CCN protein
Description: (§4) Binding of muteins to closely related proteins of CTGF was tested by an ELISA assay. In detail, a 384-well plate suitable for fluorescence measurements (Greiner FLUOTRAC™ 600, black flat bottom, high-binding) was coated with 20 μl of human CTGF or the other members of the CCN protein family at a concentration of 1 μg/ml in PBS over night at 4° C. After washing with PBS with 0.05% Tween 20, wells were blocked with 100 μl blocking buffer containing 0.1% Tween 20 and 2% BSA (PBS-T/BSA) for 1 h at room temperature. 20 μl of serially diluted muteins starting at 1000 nM were incubated in PBS-T/BSA for 1 h at room temperature (RT).
(§5) The residual supernatants were discarded and 20 μl HRP-labeled anti-NGAL or anti-Strep-Tag antibody was added at a predetermined optimal concentration in PBS-T/BSA and incubated for 1 h at RT. After washing, 20 μl fluorogenic HRP substrate (QuantaBlu, Thermo) was added to each well, and the reaction was allowed to proceed for 2 to 60 minutes. The fluorescence intensity of every well on the plate was read using a fluorescence microplate reader (Tecan). When the signal for human CTGF approached saturation, the cross reactivity to the other proteins was assessed.

huWISP-3 = target: T4, huWISP-3; assay: ELISA, coated CCN protein
Description: as §4, §5

huNOV = target: T5, huNOV; assay: ELISA, coated CCN protein
Description: as §4, §5

huWISP-2 = target: T6, huWISP-2; assay: ELISA, coated CCN protein
Description: as §4, §5

huWISP-1 = target: T7, huWISP-1; assay: ELISA, coated CCN protein
Description: as §4, §5

| Binder | Kd [1] | koff [1] | kon [1] | binding result [2] | binding result [3] | binding result (huCYR61) | binding result (huWISP-3) | binding result (huNOV) | binding result (huWISP-2) | binding result (huWISP-1) |
| --- | --- | --- | --- | --- | --- | --- | --- | --- | --- | --- |
| B1 | 0.514 nM | 0.000149 s⁻¹ | 290000 M⁻¹ s⁻¹ | binds | – | – | – | – | – | – |
| B2 | 0.077 nM | 9.42e-06 s⁻¹ | 122000 M⁻¹ s⁻¹ | – | binds | no binding (tested: dilutions starting at 1000 nM) | no binding (tested: dilutions starting at 1000 nM) | no binding (tested: dilutions starting at 1000 nM) | no binding (tested: dilutions starting at 1000 nM) | no binding (tested: dilutions starting at 1000 nM) |
